In experiment [1] the target is HLA-C*03:03. The experiment in a line: IEDB peptide-MHC binding, purified MHC/direct/fluorescence; filed as Kd, often an IC50 or EC50 that approximates it; ≥ and ≤ were set here for values at or beyond the usual limits of such assays.
For experiment [2], the target named is HLA-A*03:01. The experiment in a line: IEDB peptide-MHC binding, purified MHC/competitive/fluorescence; filed as Kd, often an IC50 or EC50 that approximates it; ≥ and ≤ were set here for values at or beyond the usual limits of such assays. The following applies: source organism: Salmonella enterica subsp. enterica serovar Typhi.
The target in experiment [3] is HLA-A*68:23. The description is as above. The following applies: source organism: Salmonella enterica subsp. enterica serovar Typhi.
Experiment [4] addresses HLA-C*04:01. The experiment is described as above.
Experiment [5] addresses HLA-B*83:01. The experiment is described as above. The following applies: source organism: Salmonella enterica subsp. enterica serovar Typhi.
The target in experiment [6] is HLA-B*15:42. The experiment is described as above.
In experiment [7] the target is HLA-B*45:06. The experiment is described as above.
The target of experiment [8] is HLA-B*15:01. The experiment is described as above. The following applies: source organism: Salmonella enterica subsp. enterica serovar Typhi.
The target of experiment [9] is HLA-A*31:01. Described as above. The following applies: source organism: Salmonella enterica subsp. enterica serovar Typhi.
In experiment [10] the target is HLA-B*46:01. The experiment in a line: IEDB peptide-MHC binding, purified MHC/direct/fluorescence; filed as Kd, often an IC50 or EC50 that approximates it; ≥ and ≤ were set here for values at or beyond the usual limits of such assays.
For experiment [11], the target named is HLA-A*29:02. The description is as above.
Experiment [12] has as its target HLA-B*18:01. The description is as above.
Experiment [13] addresses HLA-A*03:01. The description is as above.
The target of experiment [14] is HLA-B*27:03. The experiment is described as above.
The target in experiment [15] is HLA-B*51:01. The experiment is described as above.
For experiment [16], the target named is HLA-A*02:11. The experiment is described as above.
Experiment [17] deals with HLA-A*26:01. The description is as above.
Experiment [18] addresses HLA-B*15:01. Described as above.
The target of experiment [19] is HLA-A*02:01. The description is as above.
Experiment [20] concerns the target HLA-A*02:12. The experiment is described as above.
Experiment [21] has as its target HLA-A*02:03. The description is as above.
For experiment [22], the target named is HLA-A*02:19. The experiment is described as above.
Experiment [23] has as its target HLA-B*39:01. Described as above. The following applies: source organism: Mycobacterium tuberculosis str. Haarlem.
Experiment [24] addresses HLA-A*24:03. Described as above.
Experiment [25] addresses HLA-A*02:16. Described as above.
Experiment [26] has as its target HLA-B*07:02. The experiment is described as above. The following applies: source organism: Orthohantavirus hantanense.
Experiment [27] has as its target HLA-B*51:01. The experiment in a line: IEDB peptide-MHC binding, purified MHC/competitive/fluorescence; filed as Kd, often an IC50 or EC50 that approximates it; ≥ and ≤ were set here for values at or beyond the usual limits of such assays. The following applies: source organism: Yersinia pestis Nepal516.
For experiment [28], the target named is HLA-A*01:01. The experiment is described as above. The following applies: source organism: Yersinia pestis Nepal516.
In experiment [29] the target is HLA-A*02:01. Described as above. The following applies: source organism: Yersinia pestis Nepal516.
Experiment [30] deals with HLA-B*58:01. The experiment is described as above. The following applies: source organism: Yersinia pestis Nepal516.
Experiment [31] addresses HLA-C*08:02. As to the kind of experiment: IEDB peptide-MHC binding, purified MHC/direct/fluorescence; filed as Kd, often an IC50 or EC50 that approximates it; ≥ and ≤ were set here for values at or beyond the usual limits of such assays. The following applies: source organism: Yersinia pestis Nepal516.
Experiment [32] addresses HLA-A*23:01. The description is as above. The following applies: source organism: Salmonella enterica subsp. enterica serovar Typhimurium str. LT2.
The target in experiment [33] is HLA-B*57:01. The experiment is described as above. The following applies: source organism: Salmonella enterica subsp. enterica serovar Typhimurium str. LT2.
For experiment [34], the target named is HLA-B*15:17. The description is as above. The following applies: source organism: Salmonella enterica subsp. enterica serovar Typhimurium str. LT2.
Experiment [35] concerns the target HLA-A*68:02. The description is as above. The following applies: source organism: Salmonella enterica subsp. enterica serovar Typhimurium str. LT2.
The target of experiment [36] is HLA-A*69:01. Described as above. The following applies: source organism: Salmonella enterica subsp. enterica serovar Typhimurium str. LT2.
Where [37] appears, read: source organism: Salmonella enterica subsp. enterica serovar Typhi.
Setting [38] is: source organism: Mycobacterium tuberculosis str. Haarlem.
Setting [39] is: source organism: Hantaan virus 76-118.
Setting [40] is: source organism: Salmonella enterica subsp. enterica serovar Typhimurium str. LT2.

This note sets out measurements from the Immune Epitope Database (IEDB).

One may read the Kd as the concentration at which binding is half-saturated. For LAYARGQAM, the Kd in experiment [1] (source organism: Human herpesvirus 4 strain B95-8) is at most 0.001 µM.

On to STFDLYVYR, for which the Kd in experiment [2] was 3.21 µM; in [3], 0.0139 µM; in [4] (setting [37]), at least 5 µM; in experiment [5], at least 5 µM; in [6] (setting [37]) it was at least 5 µM; in [7] (setting [37]) it was at least 5 µM. Also, the Kd in experiment [8] was at least 20 µM; in experiment [9], 0.0243 µM.

On to YISPIFIPM, for which, in [1] (source organism: Rickettsia sibirica 246), the Kd is at most 0.001 µM.

For the sequence MAVTAAPYI, the Kd is at least 20 µM in experiment [10] (setting [38]); at least 20 µM in experiment [11] (setting [38]); at least 20 µM in [12] (setting [38]); at least 20 µM in [13] (setting [38]); at least 20 µM in experiment [14] (setting [38]); 0.103 µM in [15] (setting [38]). Also, the equilibrium dissociation constant (Kd) in [16] (setting [38]), in [17] (setting [38]), in experiment [18] (setting [38]), in experiment [19] (setting [38]), in [20] (setting [38]) and in experiment [21] (setting [38]) was at least 20 µM each time. For the same sequence, the Kd in experiment [22] (setting [38]), in [23], in [24] (setting [38]) and in experiment [25] (setting [38]) was at least 20 µM throughout.

Take TPGRYRTAV: the Kd in experiment [4] (setting [39]) is at least 5 µM; in experiment [6] (setting [39]), at least 5 µM; in experiment [7] (setting [39]), at least 5 µM; in experiment [15] (source organism: Orthohantavirus hantanense), at least 20 µM; in experiment [26], at most 0.001 µM.

On to MTSELAALI, for which the Kd in experiment [27] was at least 20 µM; in [28], at least 20 µM; in [29], 0.0073 µM; in experiment [30] it was 0.0225 µM; in experiment [31], 0.415 µM.

Regarding FKYDSTKPL, the Kd in experiment [10] (setting [40]), in experiment [11] (setting [40]), in [12] (setting [40]), in [13] (setting [40]), in [14] (setting [40]) and in experiment [15] (setting [40]) was at least 20 µM in each case. Besides, the Kd in [32], in experiment [33], in experiment [34], in experiment [16] (setting [40]), in [17] (setting [40]) and in experiment [35] was at least 20 µM throughout. Further, the Kd in experiment [18] (setting [40]), in experiment [19] (setting [40]), in experiment [20] (setting [40]), in [21] (setting [40]), in [22] (setting [40]) and in experiment [24] (setting [40]) was at least 20 µM throughout. Moreover, the Kd in [25] (setting [40]) and in experiment [36] was at least 20 µM throughout.
